What was measured:
[1] = Pan-colonic administration via sigmoidoscopy in NHP: plasma PK and PD; format: in vivo, cynomolgus monkeys
Description: (§1) IL-10 delivery construct solution (at concentrations of 0.1, 0.3 and 1.0 mg/mL for the low, mid and high-dose groups respectively) was administered via the rectal route using sigmoidoscopy and a syringe connected to a spray nozzle with a 360° spray pattern. Serial biopsy samples were collected by sigmoidoscopy (pre-dose, 0.25, 0.5, 0.75, 8 and 24-28 hours post dose). Serial plasma samples from 0 min pre-dose to between 24-28 hours post-dose were collected for analysis for the IL-10 delivery construct.

[2] = tested on: growth factors, chemokines and cytokines; format: in vivo, mice
[3] = tested on: chemokines, growth factors, cytokines; assay: Luminex 38-plex circulating cytokines, oxazolone colitis (Example 14); format: in vivo, mice
Description: Each sample was measured in duplicate.

[4] = Intraluminal injection in T-cell transfer model: rhIL-10 ELISA in intestinal tissue and serum; format: in vivo, BALB/c and SCID mice
Description: This study was conducted to examine the potential for the carrier protein to transport rhIL-10 from the intestinal lumen into the submucosal region in inflamed intestinal tissue. The T lymphocyte (T cell) transfer model was used as it is a well-established model of induced chronic colitis in mice and presents many of the essential immunological hallmarks observed in IBD patients. Nine BALB/c mice and twelve SCID mice, including nine with the colitis-like model of inflammation, were dosed with 20 μl of test article via intraluminal injection into the distal ileum and the proximal, middle and distal colon. […] In each group, two mice were terminated 10 minutes after intraluminal injections, and one was terminated 40 minutes after intraluminal injections. Intestinal tissue and serum were collected. Collected tissue was fixed, embedded, sectioned and H&E stained for histological assessment of inflammatory status. ELISA analysis to measure rhIL 10 was performed on lysates prepared from intestinal tissue and serum (FIGS. 106A-106D).

colonic tissue = assay: Pan-colonic administration in NHP: colonic biopsies (IL-10, IL-1Ra, pSTAT3/STAT3, cytokines, gene expression); format: in vivo, cynomolgus monkeys
Description: as §1
Phosphorylation of STAT3 is an early downstream event following IL-10 receptor activation.
Colonic biopsies at each tissue timepoint were analyzed for local concentration of IL-10 delivery construct, total IL-10, IL-1Ra, soluble cytokines, activation of STAT3 and gene expression following administration of the IL-10 delivery construct. […] In addition, STC1, MTNR1A and VNN2 encode proteins that suppress the NFkβ signaling pathway, a pathway through which key pro-inflammatory cytokines are regulated. […] This is consistent with the ability of IL-10 to suppress these cells' activation or differentiation towards a pro-inflammatory immune phenotype.

ulcerative colitis = assay: Phase 1b multiple ascending dose in patients with active ulcerative colitis; format: in vivo, human; conditions: for placebo-adjusted mean reduction of FCP: baseline FCP >150 μg/g
Description: Data was gathered on the safety, tolerability, pharmacokinetics, pharmacodynamics, and initial clinical response following a multiple ascending dose (MAD) of the IL-10 delivery construct in adult patients with active UC over 14 days of treatment. […] A coating with a weight ratio of 50:50 of Eudragit® L30D55: Eudragit® FS30D was applied with a thickness of 14.8 to 16.0 mg/cm^2 and a weight of approximately 76 mg to each capsule. Placebo capsules were generated using similarly coated empty capsules.
A total of four cohorts were dosed with either 1 mg, 3 mg, 10, mg or 30 mg of the IL-10 delivery construct, randomized 3:1 to receive the IL-10 delivery construct or a placebo administered once daily for fourteen days. The goal of the trial was to assess the safety of the IL-10 delivery construct and any change in UC disease activity, through endoscopy, histology, biomarkers, and serum samples. Stool samples and colonic biopsies were obtained at baseline and day 14 of treatment to assess fecal calprotectin as well as histology based upon blinded central read of the Geboes scoring system. Fecal calprotectin is an objective marker of clinical response in UC studies and the Geboes scoring system is a measure of histological response. The Geboes scoring system of this example used a 0-22 point histologic scoring system in which higher scores represent more severe disease.

[5] = tested on: human peripheral blood mononuclear cells (PBMCs); assay: LPS-induced TNFα, IL-6 and HLA-DR in PBMC monocytes, flow cytometry; conditions: pre-treatment
STAT3 = assay: In vivo pSTAT3 induction in lamina propria, immunofluorescence confocal microscopy; parameters: species or system Balb/C mice
Description: In vivo studies in mice were performed where the biological activity of human IL-10 following transcytosis was assessed for its ability to stimulate the mouse IL-10 receptor and increase phosphorylation of STAT3 (pSTAT3) in cells within the lamina propria.
An extensive amount of rhIL-10 (SEQ ID NO: 5) was trafficked through enterocytes. Additionally, there were a population of lymphocyte-like cells at the basolateral surface of enterocytes and within the lamina propria that were pSTAT3 positive.
Entire intestines of mice were isolated and processed as a “swiss role” and localization of pSTAT3 was detected by immunofluorescence confocal microscopy (FIG. 110).

[6] = 1 mg once daily for 14 days, n = 3 UC patients
[7] = 3 mg once daily for 14 days, n = 3 UC patients
[8] = 10 mg once daily for 14 days, n = 3 UC patients
[9] = 30 mg once daily for 14 days, n = 3 UC patients

B1: IL-10 delivery construct: recombinant homodimeric fusion protein: N-terminal methionine, cholix386 domain, polyGlySer spacer, recombinant human IL-10 (protein)
chain: MVEEALNIFDECRSPCSLTPEPGKPIQSKLSIPSDVVLDEGVLYYSMTINDEQNDIKDEDKGESIITIGEFATVRATRHYVNQDAPFGVIHLDITTENGTKTYSYNRKEGEFAINWLVPIGEDSPASIKISVDELDQQRNIIEVPKLYSIDLDNQTLEQWKTQGNVSFSVTRPEHNIAISWPSVSYKAAQKEGSRHKRWAHWHTGLALCWLVPMDAIYNYITQQNCTLGDNWFGGSYETVAGTPKVITVKQGIEQKPVEQRIHFSKGNAMSALAAHRVCGVPLETLARSRKPRDLTDDLSCAYQAQNIVSLFVATRILFSHLDSVFTLNLDEQEPEVAERLSDLRRINENNPGMVTQVLTVARQIYNDYVTHHPGLTPEQTSAGAQAGGGGSGGGGSGGGGSPGQGTQSENSCTHFPGNLPNMLRDLRDAFSRVKTFFQMKDQLDNLLLKESLLEDFKGYLGCQALSEMIQFYLEEVMPQAENQDPDIKAHVNSLGENLKTLRLRLRRCHRFLPCENKSKAVEQVKNAFNKLQEKGIYKAMSEFDIFINYIEAYMTMKIRN
modifications: homodimer
[1]; 3 mg and 10 mg doses
  plasma IL-10 delivery construct concentration relative to IL-10: 10 fold lower
[1]; 1, 3, 10 mg
  systemic IFN-γ, IL-1β, IL-2, IL-8: did not lead to an increase
[1]; 1, 3 and 10 mg
  plasma IL-1Ra: induction of the plasma concentration of IL-1Ra was observed at all three doses
[1]; 3 and 10 mg groups
  systemic IL-6: moderately induced
[1]; cynomolgus monkey, in vivo
  time of maximal plasma IL-1Ra concentration: 3 to 4 h
[1]; single dose 1, 3 or 10 mg pan-colonic
  time to detection of total IL-10 in plasma: ≤ 15 min
[2]; 3.0 mg/kg
  plasma TGF-β relative to Vehicle: reduced
[2]; 9.0 mg/kg
  production of IL-12 and IL-17: prevented
[2]; highest dose (9 mg/kg)
  plasma MCSF: reduced
[2]; mouse, in vivo
  oxazolone-induced changes in LIX, LIF, IP10: mitigated
  plasma IL-3, IL-4 (9.0 mg/kg), IL-28 (3.0 and 9.0 mg/kg), IL-31 (0.3 mg/kg): to near-base line levels
  plasma MIP1α: trend towards a reduction
[2]; prophylactic pre-treatment
  oxazolone-induced increase in plasma GCSF/CSF3: attenuated
[2]; vs Vehicle
  plasma IL-13 and IL-15: trend towards an IL-10 delivery construct-mediated decrease
[3]; 8.45 mg/kg
  increased serum levels of MCSF, IL12 p70, IL-3: Treatment-mediated suppression
[3]; 8.45 mg/kg prophylactic
  reduction of plasma IL-23 compared with Vehicle: 73%
[3]; 8.45 mg/kg prophylactic, Luminex
  reduction of plasma IL-6 compared with Vehicle: 33%
[4]; 159 pmoles
  rhIL-10 levels in inflamed tissue relative to rhIL-10 alone: approximately 10 fold higher
  uptake in normal intestinal tissues compared to rhIL-10 alone: two- to five-fold higher
[4]; 159 pmoles, 10-minute exposure
  rhIL-10 in intestinal tissue compared to rhIL-10 alone: substantially higher
[4]; intraluminal injection
  rhIL-10 in serum of healthy animals: moderately high rhIL-10 detected
  rhIL-10 in serum of inflamed animals: minimal amounts of rhIL-10 were detected
Colonic tissue; 1, 3, 10 mg
  IL-1Ra concentration in colonic tissue: not further augmented
  total IL-10 in colonic tissue: dose-dependent increase in total IL-10
Colonic tissue; 8 h
  colonic MMP1, MMP3, MMP19: also upregulated
  colonic TIMP1, tissue repair and anti-microbial genes: also increased
  colonic anti-inflammatory genes (CD163, miR24-2, NOX1 ...): upregulated a number of anti-inflammatory genes
  colonic pro-inflammatory genes (MHCII, PLA2G2D, CCL20, CCL13): decreased a number of pro-inflammatory genes
Colonic tissue; 8 h, 12-hour fast prior to treatment
  colonic expression of CYP1A1: downregulated
Colonic tissue; all doses tested
  colonic tissue pSTAT3/STAT3: Higher ratios of colonic tissue pSTAT3/STAT3
Colonic tissue; cynomolgus monkey, in vivo
  induction of pro-inflammatory cytokines in colonic tissue: not observed
Colonic tissue; first sampling time point
  time of peak total IL-10 in colonic tissue: 15 min
Ulcerative colitis; [6]
  # of TEASs: 2
  TEASs (% pts): 67%
Ulcerative colitis; 1 mg, 14 days
  placebo-adjusted mean reduction of FCP: 44%
Ulcerative colitis; [7]
  # of TEASs: 7
  TEASs (% pts): 67%
Ulcerative colitis; 3 mg, 14 days
  placebo-adjusted mean reduction of FCP: 27%
Ulcerative colitis; 10 mg and 30 mg
  FCP activity at higher doses: diminution of activity at higher doses
Ulcerative colitis; [8]
  # of TEASs: 5
  TEASs (% pts): 67%
Ulcerative colitis; 10 mg, pre-dose to 14 days
  Geboes score of one UC patient (22 point scale): improved from a score of 15 to a score of three
Ulcerative colitis; [9]
  # of TEASs: 6
  TEASs (% pts): 67%
Ulcerative colitis; 1, 3, 10, 30 mg once daily 14 days
  tolerability in patients with UC: well tolerated
Ulcerative colitis; 1 and 3 mgs, baseline CRP greater than 5 mg/L
  CRP levels compared to placebo: greater reductions in CRP levels
Ulcerative colitis; 14 days
  TEAEs in the 12 active patients: 20
Ulcerative colitis; 14 days, (6/10) active patients
  patients with reduced Geboes scores: 60%
Ulcerative colitis; All Active, n = 12 UC patients
  # of TEASs: 20
  TEASs (% pts): 67%
Ulcerative colitis; human, in vivo
  detection in systemic circulation: not detected in systemic circulation
  treatment emergent AEs of anemia or thrombocytopenia: no treatment emergent AEs of anemia or thrombocytopenia were observed
[5]
  LPS-induced secreted TNFα: dose-dependent reduction
  LPS-induced surface expression of HLA-DR: dose-dependent reduction
STAT3; intraluminal injection into jejunum
  phosphorylation of STAT3 in cells within the lamina propria: increased phosphorylation of STAT3
STAT3; oral gavage
  IL-10 activity (pSTAT3) along the intestine: demonstrated along the length of intestine
